One molecule from US5717058, “Peptide inhibitors of tax-dependent transcription” (Somatogen, Inc.) can be followed below.

In data set [1] the target is CREB + Tax (HTLV-I Tax enhances CREB binding) (/ HTLV-I, UniProt P16220;P03409 P16220:1-327,P03409:1-353). The experiment in a line: EMSA. As to conditions: tags: Tax carries C-terminal His6 (TaxH6); label: 32P end-label; cloned into pUC19 Bgl II site, 70 bp Kpn I-Hind III fragment used as probe. In general terms: A gel shift assay detects complexes by their altered migration in electrophoresis.
Sequence of CREB + Tax (HTLV-I Tax enhances CREB binding) (P16220 whole entry, chain 1 of 2, the tested form may be a part): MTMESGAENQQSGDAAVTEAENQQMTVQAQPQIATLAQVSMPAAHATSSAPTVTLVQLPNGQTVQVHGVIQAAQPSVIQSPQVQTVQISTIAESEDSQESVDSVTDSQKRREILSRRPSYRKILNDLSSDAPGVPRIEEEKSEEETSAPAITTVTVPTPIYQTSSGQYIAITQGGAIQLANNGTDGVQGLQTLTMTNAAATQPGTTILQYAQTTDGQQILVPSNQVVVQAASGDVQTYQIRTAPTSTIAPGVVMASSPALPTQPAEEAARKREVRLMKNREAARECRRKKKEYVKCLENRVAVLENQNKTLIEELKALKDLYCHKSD
Sequence of CREB + Tax (HTLV-I Tax enhances CREB binding) (P03409 whole entry, chain 2 of 2, the tested form may be a part): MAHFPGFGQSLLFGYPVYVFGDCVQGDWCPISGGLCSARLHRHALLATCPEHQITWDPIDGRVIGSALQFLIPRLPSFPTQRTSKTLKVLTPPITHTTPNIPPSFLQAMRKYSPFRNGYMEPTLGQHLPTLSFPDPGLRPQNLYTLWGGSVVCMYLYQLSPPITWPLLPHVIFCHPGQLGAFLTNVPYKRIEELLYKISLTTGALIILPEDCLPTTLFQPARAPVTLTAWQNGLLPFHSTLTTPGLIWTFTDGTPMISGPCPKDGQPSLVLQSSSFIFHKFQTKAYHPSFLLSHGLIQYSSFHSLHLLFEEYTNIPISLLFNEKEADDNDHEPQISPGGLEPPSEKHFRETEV

The target in data set [2] is CREB (UniProt P16220 P16220:1-327). The experiment in a line: EMSA; 3.4 nM CREB, 0.5 nM probe, 10 ng poly dIdC, 75 mM KCl, 6.25 mM MgCl2, room temp; reference without Tax. To be noted: tags: heparin-agarose purified, prepared per Franklin et al. 1993; chain copies: 2; label: 32P end-label; cloned into pUC19 Bgl II site, 70 bp Kpn I-Hind III fragment used as probe.
Sequence of CREB (P16220 whole entry, the tested form may be a part, one chain of several): as the sequence (P16220 whole entry, chain 1 of 2, the tested form may be a part) above

B1: HTLV-I third 21 bp repeat (site 3 probe) (dsDNA)
DNA 1: GATCTGGCGTTGACGACAACCCCA
DNA 2: TGGGGTTGTCGTCAACGCCAGATC
As to B1, the binding signal is 3.9 fold in data set [1] and 1 fold in data set [2].
